{"source": "patent US20250059270A1", "about": "(SESEN BIO, published 2025)", "key": {"human IL-6 [1]": {"molecular_target": "T1, human IL-6 (human, UniProt P05231 30-212)", "T1 construct": "Recombinant protein was R&D Systems 206-IL/CF where stated; It was biotinylated in the yeast display assays and amine-coupled to the chip in SPR; also called free IL-6; biotinylated human IL-6", "assay": "functional epitope mapping by ELISA"}, "rabbit IL-6": {"molecular_target": "T2, rabbit IL-6 (rabbit, UniProt Q9MZR1 27-241, limits assumed)", "T2 sequence (looked up)": "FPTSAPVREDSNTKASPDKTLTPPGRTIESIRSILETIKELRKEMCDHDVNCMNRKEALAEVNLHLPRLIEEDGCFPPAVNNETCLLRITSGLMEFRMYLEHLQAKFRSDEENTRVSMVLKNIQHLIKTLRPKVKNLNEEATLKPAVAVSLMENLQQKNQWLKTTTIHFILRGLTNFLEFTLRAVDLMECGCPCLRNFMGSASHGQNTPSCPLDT", "assay": "statement in the rabbit PK example; no assay named"}, "human IL-6 [2]": {"molecular_target": "T1, human IL-6", "assay": "cell-based or functional assay"}, "human IL-6 [3]": {"molecular_target": "T1, human IL-6", "assay": "cell-based or functional assay", "remark": "listed apart in the source"}, "hyper IL-6": {"molecular_target": "hyper IL-6", "assay": "cell-based or functional assay"}, "human IL-6 [4]": {"molecular_target": "T1, human IL-6", "assay": "yeast surface display of Fab, flow cytometry (APC-A = bound biotinylated IL-6, FITC-A = display) after overnight competition with 2 µM IL-6"}}, "data": [{"binder": "murine 64 antibody (hybridoma 64, subclone 64.58) (antibody, V domains shown, Murine monoclonal from a hybridoma; also called m64) VH: QVQLQQSGAELVRPGTSVKVSCKASGYAFSNYLIEWVKQRPGQGLEWIGVITPGSGTINYNEKFKGKAVLTADKSSSTVYMQLSSLTSDDSAVYFCAKSRWDPLYYYALEYWGQGTSVTVSS VL: not shown", "values": [{"measurement": "binding result", "setting": "human IL-6 [1]", "value": "binds"}]}, {"binder": "EBI-029 IgG2 (antibody, also called 018IgG2) heavy: QVQLVQSGAEVKKPGSSVKVSCKASGYALSNYLIEWVRQAPGQGLEWMGVITPGSGTINYAQKFQGRVTITADESTSTAYMELSSLRSEDTAVYYCARSRWDPLYYYALEYWGQGTTVTVSSASTKGPSVFPLAPCSRSTSESTAALGCLVKDYFPEPVTVSWNSGALTSGVHTFPAVLQSSGLYSLSSVVTVPSSNFGTQTYTCNVDHKPSNTKVDKTVERKCCVECPPCPAPPVAGPSVFLFPPKPKDTLMISRTPEVTCVVVDVSHEDPEVQFNWYVDGVEVHNAKTKPREEQFNSTFRVVSVLTVVHQDWLNGKEYKCKVSNKGLPAPIEKTISKTKGQPREPQVYTLPPSREEMTKNQVSLTCLVKGFYPSDIAVEWESNGQPENNYKTTPPMLDSDGSFFLYSKLTVDKSRWQQGNVFSCSVMHEALHNHYTQKSLSLSPGK light: DIVMTQSPDSLAVSLGERATINCRASESVDNYGIPFMNWYQQKPGQPPKLLIYAASNRGSGVPDRFSGSGSGTDFTLTISSLQAEDVAVYYCQQSEEVPLTFGQGTKLEIKRTVAAPSVFIFPPSDEQLKSGTASVVCLLNNFYPREAKVQWKVDNALQSGNSQESVTEQDSKDSTYSLSSTLTLSKADYEKHKVYACEVTHQGLSSPVTKSFNRGEC", "values": [{"measurement": "binding result", "setting": "rabbit IL-6", "value": "no binding"}, {"measurement": "IC50, HEK-Blue IL6 reporter cells, 20 pM IL-6", "setting": "human IL-6 [2]", "value": 47, "unit": "pM"}]}, {"binder": "EBI-031 (EBI-030 IgG2-H311A) (antibody, also called EBI-030-H311A) heavy: QVQLVQSGAEVKKPGSSVKVSCKASGYVLPNYLIEWVRQAPGQGLEWMGVTTPGGGTINYAQKFQGRVTITADESTSTAYMELSSLRSEDTAVYYCARSRWDPLYYYALEYWGQGTTVTVSSASTKGPSVFPLAPCSRSTSESTAALGCLVKDYFPEPVTVSWNSGALTSGVHTFPAVLQSSGLYSLSSVVTVPSSNFGTQTYTCNVDHKPSNTKVDKTVERKCCVECPPCPAPPVAGPSVFLFPPKPKDTLMISRTPEVTCVVVDVSHEDPEVQFNWYVDGVEVHNAKTKPREEQFNSTFRVVSVLTVVAQDWLNGKEYKCKVSNKGLPAPIEKTISKTKGQPREPQVYTLPPSREEMTKNQVSLTCLVKGFYPSDIAVEWESNGQPENNYKTTPPMLDSDGSFFLYSKLTVDKSRWQQGNVFSCSVMHEALHNHYTQKSLSLSPGK light: DIVMTQSPDSLAVSLGERATINCRASESVDNYGIPFMNWYQQKPGQPPKLLIYAASNRGSGVPDRFSGSGSGTDFTLTISSLQAEDVAVYYCQQSEEVPLTFGQGTKLEIKRTVAAPSVFIFPPSDEQLKSGTASVVCLLNNFYPREAKVQWKVDNALQSGNSQESVTEQDSKDSTYSLSSTLTLSKADYEKHKVYACEVTHQGLSSPVTKSFNRGEC", "values": [{"measurement": "IC50, cis-signaling, HEK-Blue IL6 cells, 20 pM free IL-6", "setting": "human IL-6 [3]", "value": 14.2, "unit": "pM"}, {"measurement": "IC50, fold less than that of EBI-029, HEK-Blue IL6", "setting": "human IL-6 [3]", "value": "> 75", "unit": "fold"}, {"measurement": "IC90, fold less than that of EBI-029, HEK-Blue IL6", "setting": "human IL-6 [3]", "value": "~350", "unit": "fold"}, {"measurement": "fold decrease in IC50 compared with EBI-029, HEK-Blue IL6", "setting": "human IL-6 [3]", "value": "~50", "unit": "fold"}, {"measurement": "fold decrease in IC90 compared with EBI-029, HEK-Blue IL6", "setting": "human IL-6 [3]", "value": "> 100", "unit": "fold"}, {"measurement": "fold greater potency than tocilizumab, cis-signaling, HEK-Blue IL6 cells", "setting": "human IL-6 [3]", "value": "> 900", "unit": "fold"}, {"measurement": "IC50, trans-signaling, HEK-Blue IL6 cells, 200 pM hyper IL-6", "setting": "hyper IL-6", "value": 32, "unit": "pM"}, {"measurement": "binding result", "setting": "rabbit IL-6", "value": "no binding"}, {"measurement": "IC50, HEK-Blue IL6 reporter cells, 20 pM IL-6", "setting": "human IL-6 [2]", "value": 0.6, "unit": "pM"}]}, {"binder": "EBI-030 IgG2 (antibody) heavy: QVQLVQSGAEVKKPGSSVKVSCKASGYVLPNYLIEWVRQAPGQGLEWMGVTTPGGGTINYAQKFQGRVTITADESTSTAYMELSSLRSEDTAVYYCARSRWDPLYYYALEYWGQGTTVTVSSASTKGPSVFPLAPCSRSTSESTAALGCLVKDYFPEPVTVSWNSGALTSGVHTFPAVLQSSGLYSLSSVVTVPSSNFGTQTYTCNVDHKPSNTKVDKTVERKCCVECPPCPAPPVAGPSVFLFPPKPKDTLMISRTPEVTCVVVDVSHEDPEVQFNWYVDGVEVHNAKTKPREEQFNSTFRVVSVLTVVHQDWLNGKEYKCKVSNKGLPAPIEKTISKTKGQPREPQVYTLPPSREEMTKNQVSLTCLVKGFYPSDIAVEWESNGQPENNYKTTPPMLDSDGSFFLYSKLTVDKSRWQQGNVFSCSVMHEALHNHYTQKSLSLSPGK light: DIVMTQSPDSLAVSLGERATINCRASESVDNYGIPFMNWYQQKPGQPPKLLIYAASNRGSGVPDRFSGSGSGTDFTLTISSLQAEDVAVYYCQQSEEVPLTFGQGTKLEIKRTVAAPSVFIFPPSDEQLKSGTASVVCLLNNFYPREAKVQWKVDNALQSGNSQESVTEQDSKDSTYSLSSTLTLSKADYEKHKVYACEVTHQGLSSPVTKSFNRGEC", "values": [{"measurement": "IC50, fold less than that of EBI-029, HEK-Blue IL6 (EBI-030 produced in HEK cells)", "setting": "human IL-6 [3]", "value": "> 50", "unit": "fold"}, {"measurement": "IC90, fold less than that of EBI-029, HEK-Blue IL6 (EBI-030 produced in HEK cells)", "setting": "human IL-6 [3]", "value": "~4000", "unit": "fold"}, {"measurement": "fold decrease in IC50 compared with EBI-029, HEK-Blue IL6", "setting": "human IL-6 [3]", "value": "~50", "unit": "fold"}, {"measurement": "fold decrease in IC90 compared with EBI-029, HEK-Blue IL6", "setting": "human IL-6 [3]", "value": "> 100", "unit": "fold"}, {"measurement": "binding result", "setting": "rabbit IL-6", "value": "no binding"}, {"measurement": "IC50, HEK-Blue IL6 reporter cells, 20 pM IL-6 (EBI-030 CHO, stable CHO pool)", "setting": "human IL-6 [2]", "value": 1.4, "unit": "pM"}, {"measurement": "IC50, HEK-Blue IL6 reporter cells, 20 pM IL-6 (EBI-030 from HEK-6E cells)", "setting": "human IL-6 [2]", "value": 0.9, "unit": "pM"}]}, {"binder": "EBI-029 IgG2-H311A (antibody, also called EBI-029-H311A) heavy: QVQLVQSGAEVKKPGSSVKVSCKASGYALSNYLIEWVRQAPGQGLEWMGVITPGSGTINYAQKFQGRVTITADESTSTAYMELSSLRSEDTAVYYCARSRWDPLYYYALEYWGQGTTVTVSSASTKGPSVFPLAPCSRSTSESTAALGCLVKDYFPEPVTVSWNSGALTSGVHTFPAVLQSSGLYSLSSVVTVPSSNFGTQTYTCNVDHKPSNTKVDKTVERKCCVECPPCPAPPVAGPSVFLFPPKPKDTLMISRTPEVTCVVVDVSHEDPEVQFNWYVDGVEVHNAKTKPREEQFNSTFRVVSVLTVVAQDWLNGKEYKCKVSNKGLPAPIEKTISKTKGQPREPQVYTLPPSREEMTKNQVSLTCLVKGFYPSDIAVEWESNGQPENNYKTTPPMLDSDGSFFLYSKLTVDKSRWQQGNVFSCSVMHEALHNHYTQKSLSLSPGK light: DIVMTQSPDSLAVSLGERATINCRASESVDNYGIPFMNWYQQKPGQPPKLLIYAASNRGSGVPDRFSGSGSGTDFTLTISSLQAEDVAVYYCQQSEEVPLTFGQGTKLEIKRTVAAPSVFIFPPSDEQLKSGTASVVCLLNNFYPREAKVQWKVDNALQSGNSQESVTEQDSKDSTYSLSSTLTLSKADYEKHKVYACEVTHQGLSSPVTKSFNRGEC", "values": [{"measurement": "binding result", "setting": "rabbit IL-6", "value": "no binding"}]}, {"binder": "EBI-029 Fab variant I51T/S55G (Fab, V domains shown) VH: QVQLVQSGAEVKKPGSSVKVSCKASGYALSNYLIEWVRQAPGQGLEWMGVTTPGGGTINYAQKFQGRVTITADESTSTAYMELSSLRSEDTAVYYCARSRWDPLYYYALEYWGQGTTVTVSS VL: DIVMTQSPDSLAVSLGERATINCRASESVDNYGIPFMNWYQQKPGQPPKLLIYAASNRGSGVPDRFSGSGSGTDFTLTISSLQAEDVAVYYCQQSEEVPLTFGQGTKLEIKR", "values": [{"measurement": "Fold increase in binding/display over wt", "setting": "human IL-6 [4]", "value": 1.92, "unit": "fold"}]}, {"binder": "EBI-030 Fab (A28V/S30P/I51T/S55G) (Fab, V domains shown, IgG1 Fab; also called A28V/S30P/I51T/S55G (EBI-030)) VH: QVQLVQSGAEVKKPGSSVKVSCKASGYVLPNYLIEWVRQAPGQGLEWMGVTTPGGGTINYAQKFQGRVTITADESTSTAYMELSSLRSEDTAVYYCARSRWDPLYYYALEYWGQGTTVTVSS VL: DIVMTQSPDSLAVSLGERATINCRASESVDNYGIPFMNWYQQKPGQPPKLLIYAASNRGSGVPDRFSGSGSGTDFTLTISSLQAEDVAVYYCQQSEEVPLTFGQGTKLEIKR", "values": [{"measurement": "Fold increase in binding/display over wt", "setting": "human IL-6 [4]", "value": 4, "unit": "fold"}]}, {"binder": "EBI-029 Fab (020 Fab) (Fab, V domains shown, 018 Fab heavy chain with DKTHT added at the C-terminus; also called the 020 molecule; WT (EBI-029)) VH: QVQLVQSGAEVKKPGSSVKVSCKASGYALSNYLIEWVRQAPGQGLEWMGVITPGSGTINYAQKFQGRVTITADESTSTAYMELSSLRSEDTAVYYCARSRWDPLYYYALEYWGQGTTVTVSS VL: DIVMTQSPDSLAVSLGERATINCRASESVDNYGIPFMNWYQQKPGQPPKLLIYAASNRGSGVPDRFSGSGSGTDFTLTISSLQAEDVAVYYCQQSEEVPLTFGQGTKLEIKR", "values": [{"measurement": "binding result", "setting": "rabbit IL-6", "value": "no binding"}]}, {"binder": "EBI-029 Fab variant S30P/I51T/S55G (Fab, V domains shown) VH: QVQLVQSGAEVKKPGSSVKVSCKASGYALPNYLIEWVRQAPGQGLEWMGVTTPGGGTINYAQKFQGRVTITADESTSTAYMELSSLRSEDTAVYYCARSRWDPLYYYALEYWGQGTTVTVSS VL: DIVMTQSPDSLAVSLGERATINCRASESVDNYGIPFMNWYQQKPGQPPKLLIYAASNRGSGVPDRFSGSGSGTDFTLTISSLQAEDVAVYYCQQSEEVPLTFGQGTKLEIKR", "values": [{"measurement": "Fold increase in binding/display over wt", "setting": "human IL-6 [4]", "value": 2.52, "unit": "fold"}]}, {"binder": "EBI-029 Fab variant A28V/I51T/S55G (Fab, V domains shown) VH: QVQLVQSGAEVKKPGSSVKVSCKASGYVLSNYLIEWVRQAPGQGLEWMGVTTPGGGTINYAQKFQGRVTITADESTSTAYMELSSLRSEDTAVYYCARSRWDPLYYYALEYWGQGTTVTVSS VL: DIVMTQSPDSLAVSLGERATINCRASESVDNYGIPFMNWYQQKPGQPPKLLIYAASNRGSGVPDRFSGSGSGTDFTLTISSLQAEDVAVYYCQQSEEVPLTFGQGTKLEIKR", "values": [{"measurement": "Fold increase in binding/display over wt", "setting": "human IL-6 [4]", "value": 3.1, "unit": "fold"}]}]}
